The target in series [1] is Truncated Danio rerio tRNA ligase complex (His6-RTCB, FAM98B, CGI99, ASW 1-83, DDX1 693-740) (Danio rerio) (UniProt Q6NZS4).
Series [2] has as its target Full-length five-subunit Danio rerio tRNA ligase complex (DDX1, RTCB, FAM98B, CGI99, ASW) (Danio rerio) (UniProt F1R2L8).
Series [3] concerns the target Dr-tRNA-LC-FL (DDX1, RTCB, FAM98B, CGI99, ASW) (Danio rerio) (UniProt F1R2L8+Q6NZS4+A0PJS3+Q7ZUH1). Kind of series: MST. The note with it: 2 mM GTP, 2 mM MnCl2 (buffer B, implied by text); MST: 25 mM Hepes pH 7.5, 150 mM NaCl, 1 mM DTT, with or without 2 mM GTP and 2 mM MnCl2, 20 nM Cy5-tRNA, temperature not stated; crosslinking: 50 mM Tris pH ….
Series [4] concerns the target T1, Dr-tRNA-LC-TR (DDX1 C-term, RTCB, FAM98B, CGI99, ASW N-term) (Danio rerio) (UniProt F1R2L8+Q6NZS4+A0PJS3+Q7ZUH1).
T1 sequence 1: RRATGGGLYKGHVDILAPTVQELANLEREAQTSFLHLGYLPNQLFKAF
T1 sequence 2: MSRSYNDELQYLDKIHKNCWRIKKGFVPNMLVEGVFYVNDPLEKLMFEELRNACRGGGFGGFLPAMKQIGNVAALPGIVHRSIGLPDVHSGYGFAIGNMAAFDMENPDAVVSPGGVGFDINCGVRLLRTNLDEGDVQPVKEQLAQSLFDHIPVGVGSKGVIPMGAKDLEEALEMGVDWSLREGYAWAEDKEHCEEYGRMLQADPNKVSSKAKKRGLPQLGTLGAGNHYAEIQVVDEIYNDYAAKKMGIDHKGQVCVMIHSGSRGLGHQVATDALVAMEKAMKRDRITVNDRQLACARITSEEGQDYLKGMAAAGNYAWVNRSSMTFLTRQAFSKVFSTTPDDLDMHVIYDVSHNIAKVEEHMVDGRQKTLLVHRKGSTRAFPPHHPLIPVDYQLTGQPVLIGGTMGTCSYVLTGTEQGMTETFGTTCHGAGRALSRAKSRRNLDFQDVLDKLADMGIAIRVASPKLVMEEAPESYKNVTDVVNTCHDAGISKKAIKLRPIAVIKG
T1 sequence 3: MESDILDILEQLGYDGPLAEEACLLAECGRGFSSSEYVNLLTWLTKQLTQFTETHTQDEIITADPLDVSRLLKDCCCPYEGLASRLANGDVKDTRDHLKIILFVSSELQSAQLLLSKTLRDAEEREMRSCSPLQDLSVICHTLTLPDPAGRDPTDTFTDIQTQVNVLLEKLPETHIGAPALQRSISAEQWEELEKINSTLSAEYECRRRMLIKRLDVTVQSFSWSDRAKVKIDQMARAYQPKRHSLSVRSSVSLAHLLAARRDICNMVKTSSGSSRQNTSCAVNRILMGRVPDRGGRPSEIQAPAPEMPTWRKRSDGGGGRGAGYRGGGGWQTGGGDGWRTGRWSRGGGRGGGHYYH
T1 sequence 4: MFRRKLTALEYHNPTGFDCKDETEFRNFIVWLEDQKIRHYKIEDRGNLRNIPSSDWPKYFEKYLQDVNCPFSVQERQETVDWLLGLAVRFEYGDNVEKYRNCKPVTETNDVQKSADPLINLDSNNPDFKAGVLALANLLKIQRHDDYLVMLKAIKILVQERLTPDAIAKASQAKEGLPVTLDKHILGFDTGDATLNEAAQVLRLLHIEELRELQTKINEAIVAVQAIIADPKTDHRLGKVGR
The series is described as follows: MST. The note with it: 2 mM GTP, 2 mM MnCl2 (buffer B, implied by text); MST: 25 mM Hepes pH 7.5, 150 mM NaCl, 1 mM DTT, with or without 2 mM GTP and 2 mM MnCl2, 20 nM Cy5-tRNA, temperature not stated; crosslinking: 50 mM Tris pH ….

For the substance Danio rerio Archease (natural protein), the RNA ligase activity on the short 10-bp RNA duplex substrate, percent of substrate converted to product, time course up to 120 min (0.15 μM complex, 0.6 μM Dr-Archease) in series [1] stood at 85%; in series [2], 60%.
As usually defined, the Kd is the constant that tells how readily two partners part at equilibrium. A high value points to a looser complex. Take “GGCUCCAGUGGCGCAAUCGGUUAGCGCGCGGUACUUAUAAUGCCGAGGUUGUGAGUUCGAGCCUCACCUGGAGCACCA [tRNAIle]”: the Kd stood at 94 nM in series [3] and 89.4 nM in series [4].

The values are drawn from article PMC12135372.
